Source: publication PMC10838372 (Journal of inherited metabolic disease, 2023)
Residue numbers refer to the chain shown, from its start. In names and notes the source's numbering stands.

B1: dihydroorotase (DHO) domain of human CAD, wild type (domain or fragment, UniProt P27708 1456-1846, looked up)
chain: MTSQKLVRLPGLIDVHVHLREPGGTHKEDFASGTAAALAGGITMVCAMPNTRPPIIDAPALALAQKLAEAGARCDFALFLGASSENAGTLGTVAGSAAGLKLYLNETFSELRLDSVVQWMEHFETWPSHLPIVAHAEQQTVAAVLMVAQLTQRSVHICHVARKEEILLIKAAKARGLPVTCEVAPHHLFLSHDDLERLGPGKGEVRPELGSRQDVEALWENMAVIDCFASDHAPHTLEEKCGSRPPPGFPGLETMLPLLLTAVSEGRLSLDDLLQRLHHNPRRIFHLPPQEDTYVEVDLEHEWTIPSHMPFSKAHWTPFEGQKVKGTVRRVVLRGEVAYIDGQVLVPPGYGQDVRKWPQGAVPQLPPSAPATSEMTTTPERPRRGIPGLPD
modifications: carboxylated lysine (KCX) at K1556
B2: DHO domain of human CAD, variant R1789Q (domain or fragment, UniProt P27708 1456-1846, looked up)
chain: B1 chain with R334Q
B3: DHO domain of human CAD, variant R1722W (domain or fragment, UniProt P27708 1456-1846, looked up)
chain: B1 chain with R267W
B4: DHO domain of human CAD, variant R1785C (domain or fragment, UniProt P27708 1456-1846, looked up)
chain: B1 chain with R330C
B5: DHO domain of human CAD, variant R1810Q (domain or fragment, UniProt P27708 1456-1846, looked up)
chain: B1 chain with R355Q
B6: DHO domain of human CAD, variant R1617Q (domain or fragment, UniProt P27708 1456-1846, looked up)
chain: B1 chain with R162Q
B7: DHO domain of human CAD, variant K1482M (domain or fragment, UniProt P27708 1456-1846, looked up)
chain: B1 chain with K27M
B8: DHO domain of human CAD, variant K1556T (domain or fragment, UniProt P27708 1456-1846, looked up)
chain: B1 chain with K101T
B9: DHO domain of human CAD, variant R1475Q (domain or fragment, UniProt P27708 1456-1846, looked up)
chain: B1 chain with R20Q

Target: the molecule itself
Experiment: SEC

Protein	stoichiometry N
B1	2
B2	2
B3	2
B4	2
B5	2
B6	2
B7	2
B8	2
B9	2
